B1: ACI-11-Ab-9 monoclonal antibody (antibody, V domains shown)
VH: QVQLQQSDAELVKPGASVKISCKVSGYTFTDHTIHWMKQRPEQGLEWIGYIYPRDGSTKYNEKFKGKATLTADKSSSTAYMQLNSLTSEDSAVYFCARDYGYAFDYWGQGTTLTVSS
VL: QAVVTQESALTTSPGGTVILTCRSSTGAVTTSNYANWVQEKPDHLFTGLIGGTSNRAPGVPVRFSGSLIGDKAALTITGAQTEDDAMYFCALWYSTHYVFGGGTKVTVL
notes: Mouse monoclonal IgG from hybridoma FG1F9E4 (DSM ACC2845); also called clone FG1F9E4
B2: ACI-12-Ab-11 monoclonal antibody (antibody, V domains shown)
VH: B1 VH
VL: B1 VL
notes: Mouse monoclonal IgG from hybridoma FK2A6A6 (DSM ACC2846); also called ACI-12-Ab-11 (clone: FK2A6A6); clone FK2A6A6

Columns and labels:
[1] = target: T1, Aβ1-40 peptide, biotinylated (Anaspec) (biotinylated (position not given)); experiment: ELISA, biotin-peptide on streptavidin, Ab 10 µg/ml; mean of 2, background subtracted
T1 construct: also called Ab1-40
From the text: (§1) The peptides in the peptide library were composed of 8, 9 or 10-mer aa peptides. A biotinylated complete Aβ₁₋₄₂ peptide (human sequence) was used as positive control (Bachem, Bubendorf, Switzerland). In addition, longer peptides covering Aβ1-28, Aβ17-40, Aβ1-40 and Aβ₁₋₄₂ were used to define the broader region to which these antibodies may bind. These 4 peptides were also biotinlyated (manufactured by Anaspec and purchased from ANAWA Trading SA, Switzerland). Epitope mapping was done according to the manufacturer's (Mimotopes) instructions. Briefly, Streptavidin coated plates (NUNC, Roskilde, Denmark) were blocked with 0.1% BSA in PBS overnight at 4° C. After washing with PBS-0.05% Tween 20, plates were coated for 1 hour at RT with the different peptides from the library, diluted in 0.1% BSA, 0.1% Sodium Azide in PBS to a final concentration of 10 μM. […] Plates were washed again and incubated with alkaline phosphatase conjugated goat anti mouse IgG (Jackson Immunresearch West Grove, Pa., USA) for 1 h at RT. After final washing, plates were incubated with phosphatase substrate (pNPP, Sigma-Aldrich, St Louis, Mo., USA) and read after 3 hours of incubation at 405 nm using an ELISA plate reader.

[2] = target: T2, Aβ1-42 peptide, biotinylated (Anaspec) (biotinylated (position not given)); experiment: as above
T2 construct: also called 1-42A
From the text: as §1

[3] = target: T3, Aβ17-40 peptide, biotinylated (Anaspec) (biotinylated (position not given)); experiment: as above
T3 peptide: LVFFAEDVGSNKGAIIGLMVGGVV
From the text: as §1

[4] = target: T4, Biotinylated complete Aβ1-42 peptide (human sequence, Bachem) (human, biotinylated (position not given)); experiment: as above
T4 construct: also called 1-42B; Aβ1-42 (positive control of the peptide library ELISA)
From the text: as §1

Aβ1-42 peptide = experiment: cell-based or functional assay
[5] = target: T3, Aβ17-40 peptide, biotinylated (Anaspec); experiment: ELISA on longer biotinylated Aβ peptides
From the text: as §1

[6] = target: T4, Biotinylated complete Aβ1-42 peptide …; experiment: peptide library ELISA, positive control, Ab 10 µg/ml
From the text: as §1

Chain of Aβ1-42 peptide (peptide, as listed by the source): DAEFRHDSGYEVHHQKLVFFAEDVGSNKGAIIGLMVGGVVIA
T4 sequence (peptide, as listed by the source): as above
T2 sequence (peptide, as listed by the source): as above

Binder	O.D. [1]	O.D. [2]	O.D. [3]	O.D. [4]	disaggregation of pre-aggregated Aβ1-42, thioflavin T assay, molar ratio 1:10 (Aβ1-42 peptide)	disaggregation of pre-aggregated Aβ1-42, thioflavin T assay, molar ratio 1:100 (Aβ1-42 peptide)	inhibition of Aβ1-42 aggregation, thioflavin T assay, molar ratio 1:10 (Aβ1-42 peptide)	inhibition of Aβ1-42 aggregation, thioflavin T assay, molar ratio 1:100 (Aβ1-42 peptide)	binding result [5]	O.D. [6]
B1	1.02 O.D.	0.78 O.D.	0.02 O.D.	1.54 O.D.	52%	22%	69%	34%	no binding (tested: 10 µg/ml)	
B2	0.62 O.D.	0.44 O.D.	-0.02 O.D.	1.07 O.D.	54%	18%	66%	30%		0.69 O.D.

— patent US20100291097A1 (AC IMMUNE S A, published 2010)
